Assay results published in patent publication US12104181B2, “Compositions and methods for treating viral infections targeting TRIM7” (THE BOARD OF REGENTS OF THE UNIVERSITY OF TEXAS SYSTEM, priority 2021, dated 2024).

B1: TRIM34: human RING type E3 ligase expressed from lentiviral vector (protein, UniProt Q9BYJ4 1-488, looked up)
E3 ubiquitin-protein ligase …: MASKILLNVQEEVTCPICLELLTEPLSLDCGHSLCRACITVSNKEAVTSMGGKSSCPVCGISYSFEHLQANQHLANIVERLKEVKLSPDNGKKRDLCDHHGEKLLLFCKEDRKVICWLCERSQEHRGHHTVLTEEVFKECQEKLQAVLKRLKKEEEEAEKLEADIREEKTSWKYQVQTERQRIQTEFDQLRSILNNEEQRELQRLEEEEKKTLDKFAEAEDELVQQKQLVRELISDVECRSQWSTMELLQDMSGIMKWSEIWRLKKPKMVSKKLKTVFHAPDLSRMLQMFRELTAVRCYWVDVTLNSVNLNLNLVLSEDQRQVISVPIWPFQCYNYGVLGSQYFSSGKHYWEVDVSKKTAWILGVYCRTYSRHMKYVVRRCANRQNLYTKYRPLFGYWVIGLQNKCKYGVFEESLSSDPEVLTLSMAVPPCRVGVFLDYEAGIVSFFNVTSHGSLIYKFSKCCFSQPVYPYFNPWNCPAPMTLCPPSS
B2: TRIM26: human RING type E3 ligase expressed from lentiviral vector (protein, UniProt Q12899 1-539, looked up)
Tripartite motif-containing …: MATSAPLRSLEEEVTCSICLDYLRDPVTIDCGHVFCRSCTTDVRPISGSRPVCPLCKKPFKKENIRPVWQLASLVENIERLKVDKGRQPGEVTREQQDAKLCERHREKLHYYCEDDGKLLCVMCRESREHRPHTAVLMEKAAQPHREKILNHLSTLRRDRDKIQGFQAKGEADILAALKKLQDQRQYIVAEFEQGHQFLREREEHLLEQLAKLEQELTEGREKFKSRGVGELARLALVISELEGKAQQPAAELMQDTRDFLNRYPRKKFWVGKPIARVVKKKTGEFSDKLLSLQRGLREFQGKLLRDLEYKTVSVTLDPQSASGYLQLSEDWKCVTYTSLYKSAYLHPQQFDCEPGVLGSKGFTWGKVYWEVEVEREGWSEDEEEGDEEEEGEEEEEEEEAGYGDGYDDWETDEDEESLGDEEEEEEEEEEEVLESCMVGVARDSVKRKGDLSLRPEDGVWALRLSSSGIWANTSPEAELFPALRPRRVGIALDYEGGTVTFTNAESQELIYTFTATFTRRLVPFLWLKWPGTRLLLRP
modifications: lentiviral expression
notes: human RING type E3 ligase expressed from lentiviral vector
B3: RNF41: human RING type E3 ligase expressed from lentiviral vector (protein, UniProt Q9H4P4 1-317, looked up)
E3 ubiquitin-protein ligase …: MGYDVTRFQGDVDEDLICPICSGVLEEPVQAPHCEHAFCNACITQWFSQQQTCPVDRSVVTVAHLRPVPRIMRNMLSKLQIACDNAVFGCSAVVRLDNLMSHLSDCEHNPKRPVTCEQGCGLEMPKDELPNHNCIKHLRSVVQQQQTRIAELEKTSAEHKHQLAEQKRDIQLLKAYMRAIRSVNPNLQNLEETIEYNEILEWVNSLQPARVTRWGGMISTPDAVLQAVIKRSLVESGCPASIVNELIENAHERSWPQGLATLETRQMNRRYYENYVAKRIPGKQAVVVMACENQHMGDDMVQEPGLVMIFAHGVEEI
modifications: lentiviral expression
notes: as for B2
B4: TRIM29: human RING type E3 ligase expressed from lentiviral vector (protein, UniProt Q14134 1-588, looked up)
Tripartite motif-containing …: MEAADASRSNGSSPEARDARSPSGPSGSLENGTKADGKDAKTTNGHGGEAAEGKSLGSALKPGEGRSALFAGNEWRRPIIQFVESGDDKNSNYFSMDSMEGKRSPYAGLQLGAAKKPPVTFAEKGELRKSIFSESRKPTVSIMEPGETRRNSYPRADTGLFSRSKSGSEEVLCDSCIGNKQKAVKSCLVCQASFCELHLKPHLEGAAFRDHQLLEPIRDFEARKCPVHGKTMELFCQTDQTCICYLCMFQEHKNHSTVTVEEAKAEKETELSLQKEQLQLKIIEIEDEAEKWQKEKDRIKSFTTNEKAILEQNFRDLVRDLEKQKEEVRAALEQREQDAVDQVKVIMDALDERAKVLHEDKQTREQLHSISDSVLFLQEFGALMSNYSLPPPLPTYHVLLEGEGLGQSLGNFKDDLLNVCMRHVEKMCKADLSRNFIERNHMENGGDHRYVNNYTNSFGGEWSAPDTMKRYSMYLTPKGGVRTSYQPSSPGRFTKETTQKNFNNLYGTKGNYTSRVWEYSSSIQNSDNDLPVVQGSSSFSLKGYPSLMRSQSPKAQPQTWKSGKQTMLSHYRPFYVNKGNGIGSNEAP
modifications: lentiviral expression
notes: as for B2
B5: TRIM33: human RING type E3 ligase expressed from lentiviral vector (protein, UniProt Q9UPN9 1-1127, looked up)
E3 ubiquitin-protein ligase …: MAENKGGGEAESGGGGSGSAPVTAGAAGPAAQEAEPPLTAVLVEEEEEEGGRAGAEGGAAGPDDGGVAAASSGSAQAASSPAASVGTGVAGGAVSTPAPAPASAPAPGPSAGPPPGPPASLLDTCAVCQQSLQSRREAEPKLLPCLHSFCLRCLPEPERQLSVPIPGGSNGDIQQVGVIRCPVCRQECRQIDLVDNYFVKDTSEAPSSSDEKSEQVCTSCEDNASAVGFCVECGEWLCKTCIEAHQRVKFTKDHLIRKKEDVSESVGASGQRPVFCPVHKQEQLKLFCETCDRLTCRDCQLLEHKEHRYQFLEEAFQNQKGAIENLLAKLLEKKNYVHFAATQVQNRIKEVNETNKRVEQEIKVAIFTLINEINKKGKSLLQQLENVTKERQMKLLQQQNDITGLSRQVKHVMNFTNWAIASGSSTALLYSKRLITFQLRHILKARCDPVPAANGAIRFHCDPTFWAKNVVNLGNLVIESKPAPGYTPNVVVGQVPPGTNHISKTPGQINLAQLRLQHMQQQVYAQKHQQLQQMRMQQPPAPVPTTTTTTQQHPRQAAPQMLQQQPPRLISVQTMQRGNMNCGAFQAHQMRLAQNAARIPGIPRHSGPQYSMMQPHLQRQHSNPGHAGPFPVVSVHNTTINPTSPTTATMANANRGPTSPSVTAIELIPSVTNPENLPSLPDIPPIQLEDAGSSSLDNLLSRYISGSHLPPQPTSTMNPSPGPSALSPGSSGLSNSHTPVRPPSTSSTGSRGSCGSSGRTAEKTSLSFKSDQVKVKQEPGTEDEICSFSGGVKQEKTEDGRRSACMLSSPESSLTPPLSTNLHLESELDALASLENHVKIEPADMNESCKQSGLSSLVNGKSPIRSLMHRSARIGGDGNNKDDDPNEDWCAVCQNGGDLLCCEKCPKVFHLTCHVPTLLSFPSGDWICTFCRDIGKPEVEYDCDNLQHSKKGKTAQGLSPVDQRKCERLLLYLYCHELSIEFQEPVPASIPNYYKIIKKPMDLSTVKKKLQKKHSQHYQIPDDFVADVRLIFKNCERFNEMMKVVQVYADTQEINLKADSEVAQAGKAVALYFEDKLTEIYSDRTFAPLPEFEQEEDDGEVTEDSDEDFIQPRRKRLKSDERPVHIK
B6: TRIM32: human RING type E3 ligase expressed from lentiviral vector (protein, UniProt Q13049 2-653, looked up)
E3 ubiquitin-protein ligase …: AAAAASHLNLDALREVLECPICMESFTEEQLRPKLLHCGHTICRQCLEKLLASSINGVRCPFCSKITRITSLTQLTDNLTVLKIIDTAGLSEAVGLLMCRSCGRRLPRQFCRSCGLVLCEPCREADHQPPGHCTLPVKEAAEERRRDFGEKLTRLRELMGELQRRKAALEGVSKDLQARYKAVLQEYGHEERRVQDELARSRKFFTGSLAEVEKSNSQVVEEQSYLLNIAEVQAVSRCDYFLAKIKQADVALLEETADEEEPELTASLPRELTLQDVELLKVGHVGPLQIGQAVKKPRTVNVEDSWAMEATASAASTSVTFREMDMSPEEVVASPRASPAKQRGPEAASNIQQCLFLKKMGAKGSTPGMFNLPVSLYVTSQGEVLVADRGNYRIQVFTRKGFLKEIRRSPSGIDSFVLSFLGADLPNLTPLSVAMNCQGLIGVTDSYDNSLKVYTLDGHCVACHRSQLSKPWGITALPSGQFVVTDVEGGKLWCFTVDRGSGVVKYSCLCSAVRPKFVTCDAEGTVYFTQGLGLNLENRQNEHHLEGGFSIGSVGPDGQLGRQISHFFSENEDFRCIAGMCVDARGDLIVADSSRKEILHFPKGGGYSVLIREGLTCPVGIALTPKGQLLVLDCWDHCIKIYSYHLRRYSTP
B7: TRIM24: human RING type E3 ligase expressed from lentiviral vector (protein, UniProt O15164 1-1050, looked up)
Transcription intermediary …: MEVAVEKAVAAAAAASAAASGGPSAAPSGENEAESRQGPDSERGGEAARLNLLDTCAVCHQNIQSRAPKLLPCLHSFCQRCLPAPQRYLMLPAPMLGSAETPPPVPAPGSPVSGSSPFATQVGVIRCPVCSQECAERHIIDNFFVKDTTEVPSSTVEKSNQVCTSCEDNAEANGFCVECVEWLCKTCIRAHQRVKFTKDHTVRQKEEVSPEAVGVTSQRPVFCPFHKKEQLKLYCETCDKLTCRDCQLLEHKEHRYQFIEEAFQNQKVIIDTLITKLMEKTKYIKFTGNQIQNRIIEVNQNQKQVEQDIKVAIFTLMVEINKKGKALLHQLESLAKDHRMKLMQQQQEVAGLSKQLEHVMHFSKWAVSSGSSTALLYSKRLITYRLRHLLRARCDASPVTNNTIQFHCDPSFWAQNIINLGSLVIEDKESQPQMPKQNPVVEQNSQPPSGLSSNQLSKFPTQISLAQLRLQHMQQQVMAQRQQVQRRPAPVGLPNPRMQGPIQQPSISHQQPPPRLINFQNHSPKPNGPVLPPHPQQLRYPPNQNIPRQAIKPNPLQMAFLAQQAIKQWQISSGQGTPSTTNSTSSTPSSPTITSAAGYDGKAFGSPMIDLSSPVGGSYNLPSLPDIDCSSTIMLDNIVRKDTNIDHGQPRPPSNRTVQSPNSSVPSPGLAGPVTMTSVHPPIRSPSASSVGSRGSSGSSSKPAGADSTHKVPVVMLEPIRIKQENSGPPENYDFPVVIVKQESDEESRPQNANYPRSILTSLLLNSSQSSTSEETVLRSDAPDSTGDQPGLHQDNSSNGKSEWLDPSQKSPLHVGETRKEDDPNEDWCAVCQNGGELLCCEKCPKVFHLSCHVPTLTNFPSGEWICTFCRDLSKPEVEYDCDAPSHNSEKKKTEGLVKLTPIDKRKCERLLLFLYCHEMSLAFQDPVPLTVPDYYKIIKNPMDLSTIKKRLQEDYSMYSKPEDFVADFRLIFQNCAEFNEPDSEVANAGIKLENYFEELLKNLYPEKRFPKPEFRNESEDNKFSDDSDDDFVQPRKKRLKSIEERQLLK
B8: TRIM27: human RING type E3 ligase expressed from lentiviral vector (protein, UniProt P14373 1-513, looked up)
Zinc finger protein RFP: MASGSVAECLQQETTCPVCLQYFAEPMMLDCGHNICCACLARCWGTAETNVSCPQCRETFPQRHMRPNRHLANVTQLVKQLRTERPSGPGGEMGVCEKHREPLKLYCEEDQMPICVVCDRSREHRGHSVLPLEEAVEGFKEQIQNQLDHLKRVKDLKKRRRAQGEQARAELLSLTQMEREKIVWEFEQLYHSLKEHEYRLLARLEELDLAIYNSINGAITQFSCNISHLSSLIAQLEEKQQQPTRELLQDIGDTLSRAERIRIPEPWITPPDLQEKIHIFAQKCLFLTESLKQFTEKMQSDMEKIQELREAQLYSVDVTLDPDTAYPSLILSDNLRQVRYSYLQQDLPDNPERFNLFPCVLGSPCFIAGRHYWEVEVGDKAKWTIGVCEDSVCRKGGVTSAPQNGFWAVSLWYGKEYWALTSPMTALPLRTPLQRVGIFLDYDAGEVSFYNVTERCHTFTFSHATFCGPVRPYFSLSYSGGKSAAPLIICPMSGIDGFSGHVGNHGHSMETSP
modifications: lentiviral expression
notes: as for B2

Tested on: coxsackievirus B3 (CVB3-GFP)
Assay type: cell-based
Conditions: HeLa cells, GFP-positive cells within RFP-positive gate, replicate R1

Going from B1 to B2, the “Percent Infected R1” value falls from 62.2% to 49.3%.

Compared with B3, B4 is lower in “Percent Infected R1” value: 93.5% for the first, 68% for the second.

First: B5
Second: B6
The “Percent Infected R1” value of the first is lower: 55.3% for the first, 58.4% for the second.

Going from B7 to B8, the “Percent Infected R1” value falls from 69.5% to 60.7%.

Same assay, conditions: HeLa cells, replicate R1

Compared with B1, B2 is lower in “Z score R1” value: −0.336 for the first, −0.5 for the second.

Going from B3 to B4, the “Z score R1” value falls from 0.06 to −0.262.

Going from B5 to B6, the “Z score R1” value rises from −0.424 to −0.384.

Going from B7 to B8, the “Z score R1” value falls from −0.243 to −0.355.
